Reference: a protein production outcome set (Wang et al. 2014)

Assay: label from the status in PepcDB records
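Further: failed if final PepcDB status was selected cloned or expressed and not failed if soluble or beyond.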

| Sequence | protein production |
| --- | --- |
| MAPQSHGRSRINSIDMMRGLVMLIMLLDHVREQFFLHMQVSDPMDLSTTTWDLFVSRFAAHFCAPVFVFLTGVSAWLYANRGHGEPRSVRVFLLKRGLFLIALEVLVINFSWMGNYHTLWLQVIWVIGLSMLALAALIKLPRLWMALLGLLIVFGHNLLSPIHFEPDTWGYSLWTILHDRGYLIAEGDLKLKVSYPLLPWIGVILLGYVAGPLFSRKFEAWQRQQRLMLLGVGCFAFFCLLRGFNLYGETLPWQVGESIGQTLMSVFNLTKYPPSLSFLLVTLGGMFCGLVLFERYFAAGSLFSWIGQKLAVFGSVPMFFYILHLYVLLLLYLVAKGLFGANHGELFGVAHMGWVWLISLVLIPLLYYPVSWFSRYKSQSQQAWLKYL | failed |
| MAPSSSTFKQVADDWLKQYANDVKVSSVRAREKAIQHAIERFNTKPIQTIKKHDYQRFVDDISAQYSKNYVDSIVASTNMIFKYAYDTRLIKAMPSEGIKRPKKKLEHHHHHH | not failed |
| MAPTFSPNPQNFTKKDKTKAERRKPEEGDDDHHHNASQLFLNPWQTRAARCRSLANGMLMTLHQLRGLLLSSTKLETRRKEVENLTHQGKMNLDIIKMGKFLRNPPKNGFAVYAQNKWRGVCLGRSFIYI | failed |
| MAQAPDSSVPVRMVVDLTVDDYAAFTAYAYQRPALRRRRHASHLRFAVLLAAGLLAVILLRVWDGRQLDWGAALPAYAQALVVGLAVFALLAVGYEYALPRLARGNVRRALGRQPDNPFLGRHTLDFGPRGVDDAAAGASGTMPWEAVGQVEETASHLYLFISPLQGVIIPKRGQSADVLQAVRAQLRAHVPGAALADAADKQ | failed |
| MAQGFKITYTDQACLLDIQDPQNKESQSFHYALVPRGVEAENIPADYTVIETPIRSVICMTSLQLSNFIKLEELDAVVGITSTRHLFNKKINDRLKDGSIHKIGIEGNFDNEVIMSVNPDLILISPFKRGGYDALKEVGIPLMPHLGYKEMTPLGQAEWIKFVGLLLGREDKANKQFAAIKKRYNELKELTGLEHHHHHH | failed |
| MAQHHGHLGAVYDAAGPQEVAALYDRWAETYESEMARAGYRHPAIGVALLARHLPRGARPLLDAGAGTGLLGEWLEIVGYPEVEALDISAGMLEVARAKGIYARCHNLPLGAALPFRDGAFAGIISTGVFTTGHVGAEALPELLRICRPGGVIVLTVKESLWQGGFAVSLEAAVASGLEHHHHHH | failed |
| MAQKDRNTRIAQKAFEMVDKVYGKSPNLTTKPYDPKDESPSRFTQSAYKYGGPKIYTVREATSTYSYGRAIYMYAPESTIKEPVVSHPTEHIQYYGGTRPFVANPNRFERPKGRVINCDEAVQLYGGVLIKEFRK | failed |
| MAQKILVEQVVKRKAIVVQPKDTVDRVAKILSRNKAGSAVVMEGDEILGVVTERDILDKVVAKGKNPKEVKVEEIMTKNPVKIEYDYDIEDVIELMTEKGVRRVLVTKFGKPIGFVTAADILAALASHNHEEEEEEREEESEVYGICEVCGQYGALYKVYHEGRELWVCETCKDLIEGR | not failed |
| MAQKKGFKYRFYPTDKQKAVLAKVFGHTRYVWNWALELRTDAYYEEGESLSYTDTAKRLTDLKKEKTWLREVSSVALQQKLRDLDQAFQNFFDGRCGYPNFKSKHDKQAARFASNAFTLHGKKLSVAKVPGSLNVRWSRDLPDEAKPTSVTLTKDPAGRYFVSITSAVPEPDPEPTVTDGDGNQKSVGIDLGIADIVVTSDGWKSGNPRHLENDLYRLRKAQRRLSRKEKNGSDGPSENWKKQKRRVAKIHAEIKDKREDFLHKLSRRVVDENQVIALESLSVKGMQQNRSLARPISDTGWSTLVRMIEYKAKEAGRTVVKIDRWFPSTKRCSECGYVTESKPLSVRSWDCPRCDTTHDRDINAAKNIRTAGLAGAFQKANDSGGHSKTRDAFRIERFGANAHGPVNE | failed |
| MAQKLYPPIHPGEILMEDFIKGFGLTQNKVAVSIGVPPRRINEIVHGKRSITADTALRLGRYFGIDPQFWLSLQTQYELELDRDAGAATYAQITPLKVA | failed |
| MAQLTPLDISFIAGYLLLTLLVGLFFSRRASENVGEFFLSGRKLPWWIAGTGMVATTFAADTPLAVAGFVAKNGIAGNWVWWTFVSGGMLTVFFFARLWRRANILTDLEFIELRYSGKAASFLRGFKAVYFGLFINAVIIGWVNLAMFKIIKIMIPGLDPQLTIVGLVIFTAIYSGMSGLWGVSITDAVQFVIAMAGCIILAVLAVNSPQVTAAGGLKQALPDWMFDFFPSFSSTVNTSATGAYALPFTAFAAMAFVQWWASWYPGAEPGGGGYIAQRMMSAKDEKNSLLATLWFTIAHYCVRPWPWIVVGLASLVMFPNLPAGQKEDGFVHVMNAVLPAGLKGLLIAAFMAAYMSTLSTHLNWGTSYLINDLYKRFIKREAEQNHYVLMSRIVTAVTAIFALYITFYVLETITGAWEFIIQCGAGTGFVLIMRWFWWRLNAWSEITSMVAPIVAYSYINQFTTIVFPESIYIIVLFTITCTLAVTWLTKPTDREKLHAFYRTTRVGGALWKPVADEMPDVKGDTGFPALFADWFFGIVLVYATLFGTGKLIFGEPVAAALYYAAGALAGVMIYRDLSKRNWKTFD | failed |
| MAQNEGVSFSECVAAAKLIRSSNGPGWRQAWEELARSHVQRAEEARRTGNEPEAQKSWLHAANYFMAAAIESCPEGAEPALGALARSCLHNYLAHLTPQGETVAIPWLEPRSLEGFYLPVGTYSAETGPVVVCIAETRRTKEEILSLVLRSARKRGMTLLCVDLPDEPPSSRAGPETGIPAILDYLIDGRGIDAKRIAVISDGSPSSLVTRGIALDGRIAAAVCDGGLWDLWVARQTEACGAALGMVQGCARRPAVSCPMLVPLLASEGIEPGHARQLLTEHHPGNRDILLKVFGETSSGPWTLNGYDPILVADFVFDWVGQQLKAATGDADCIRRLESRL | failed |
| MAQNKNLNLELSLSQYVEDDPWVLKKKLSDSDLYYSAQLYLPKQEMEHFVLPEMDHDLVRKLGAGVEVKVRDVDSVDDFYTVRLKVRNGQYYLGKGWGLIKNAKVLNTGDHIGLFWDKLTREVKFKHFKSQSITMHREAGTTSTQKNVLQKK | failed |
| MAQPERFGRYRVLRRLGSGSFATVWLGHDDLLDTPVAIKVLAENWAHNLDIHQRFVEEARILRQADSEWLVRVHDIGTLPDDRPYFVMTYADRGSVADRIAQGPLPLDEALRLLTEIGQGVTVLHRHGTIHRDIKPSNVLLQSSPVGERVLVADLGFAKSIDGASGFTASAGTPGYMSPEQSVVGGDIDVRADVYSLGAVAYELVTGKRPPSPPVRVPPSRLRPGVPPALDELIMSALSPNRSDRPPDAATFTSRIREIRMSPDLELATPWWQRYRATWTRLVALVATAVAVLGVAPAASASPHLPMMEIYDASGELHVRVPTPWLRQMQLNGWSPRELGLPGGHEPGLLVATDLDAWSDARQSVSGLFAGLFVSDGQSPDLDRLISSGLCSGQPQRQRFTNAHWDGELWQWVDCSPDSSEGDVFTAAVLQHRGQERTLYLEIRQTEHQPQTVAEILDGLRLIS | failed |
| MAQTQLPHDAKAGPTKPEVRAVVRSKLALTDDDHFVEVGSCTGAVTIAAARDAGRVTALERKADRLETTRKNLAANGLADAVELRNAEAPAELPADADALFIGGSRNYDAVLDHAAETGVDRIVMNVSRLEVAGAATQAFRDRDILTEVVQFQVSHGYELAGATSFDSENPVYMLVGSASGDTEADR | failed |
| MAQTQTFRRTCFLLAIFILISVSGIGTASEFRVWPGQSIQDAVDSASPGDIILVESGEFNESIRVNKENLTIESASGNPDDIFIAGDTPISYVFEVVANDVKINFFSITDGRCGIFLNNVENCVINGNKISNQEAGIYLLNSRNNLLTNNMVYSNEDCGLKLLASSENIIYGNYFDNVENARDNRFNVWNNSKGNYWSDYGGTDENGDGIGDTPYAINPEVGSMDYRPLIEYSQEAPILPKALFTSDVTEGYAPLVVRFKDFSEDAASRLWDFGDGNFSSYPNPQHTYLNEGTYVVSLTVSNENGSDSASVTVYVRDASELAGPMLPKAQFIYNTTSGHIPLVIKFVDISENADCVTWYFGDGKTSCCPEPEHTFCCPGSYTVSLAAINENGTSSASIVVNVLPAESVESSEDTENSANTGSGSDKNNACNIVNETDADASEKAGDPELITRSENTDSLGNSIIEYASDTTDKFADAENSINAEATENSESDSNGGGEGTGTARIIHREELEAIKDSVISTASSNILKETERALENETLKVQKNVEDFVDDSLPESVGDSLPEMEQRIAPWIPSFLGLAGVIFIVSVMKRGRRRRQK | failed |
| MAQVFNFSSGPAMLPAEVLKLAQQELCDWHGLGTSVMEISHRGKEFIQVAEEAEQDFRDLLNIPSNYKVLFCHGGGRGQFAGVPLNLLGDKTTADYVDAGYWAASAIKEAKKYCAPQIIDAKITVDGKRAVKPMREWQLSDNAAYLHYCPNETIDGIAIDETPDFGPEVVVTADFSSTILSAPLDVSRYGVIYAGAQKNIGPAGLTLVIVREDLLGKAHESCPSILDYTVLNDNDSMFNTPPTFAWYLSGLVFKWLKAQGGVAAMHKINQQKAELLYGVIDNSDFYRNDVAQANRSRMNVPFQLADNTLDKVFLEESFAAGLHALKGHRVVGGMRASIYNAMPIEGVKALTDFMIDFERRHG | not failed |
| MARAKNVLWIMCDQLRYDYLGCTGHPTLKTPNIDAMAKRGVLFSKAYVQSPICGPSRMSFYTGRYMRSHGSHWNGWPLRVGEPTLGDHLKKIGVRNVLVGKTHMAPDLEGMKALGIPPESMIGVHVAECGFEPYERDDGLHPTGRPRPKYDEYLRKQGFEATNPWEHWANSGAAEDGSLQNGWLLVHADKAARVPEEHSETPYMTRRAMDFISEAETDGKPWCLHLSYIKPHWPYIAPEPYASMYSTDDMIPVIRSERERQNPHPVFGAYMDMRYSRNMARDDAREKVIPTYMGLITQIDDQMGALMKFLEERGLLDTTMIVFTSDHGDYLGDHWMGEKDLFHEQSAKIPLIIIDPSREADATRGTRSDALVEGIDLAPTFVDYFGGKVPGHILEGRSLLPLLRGPTPPDWRKVAFSEYDYAMQDVRLKLNQPIERCRLFMVFDGRWKYIHASGFRPMLYDLETDPEEFLDRGDDPDCAGIIARLQAELFDWALHPNDHITTPREKIAAYADNQLQVKGGVLIGIWDEAELAAIKDGIAQRAKL | failed |
| MARDGGVSCLRRSEMMSVGGIGGIESAPLDLDEVHVLAVDDSLVDRIVIERLLRITSCKVTAVDSGWRALEFLGLDNEKASAEFDRLKVDLIITDYCMPGMTGYELLKKIKESSNFREVPVVIMSSENVLTRIDRCLEEGAQDFLLKPVKLADVKRLRSHLTKDVKLSNGNKRKLPEDSSSVNSSLPPPSPPLTISPESSPPLTVSTESSDSSPPLSPVEIFSTSPLSSPIDDEDDDVLTSSSEESPIRRQKMRSPGLD | failed |
| MARGLNRVFLIGALATRPDMRYTPAGLAILDLTLAGQDLLLSDNGGEREVSWYHRVRLLGRQAEMWGDLLDQGQLVFVEGRLEYRQWEREGERRSELQIRADFLDPLDDRGKERAEDSRGQPRLRAALNQVFLMGNLTRDPELRYTPQGTAVARLGLAVNERRQGAEERTHFVEVQAWRDLAEWAAELRKGDGLFVIGRLVNDSWTSSSGERRFQTRVEALRLERPTRGPAQAGGSRSREVQTGGVDIDEGLEDFPPEEELPF | not failed |
